According to the supplement of paper PMC12042874:
± gives the uncertainty stated by the source.

Test: amyloid nucleation score (Sup35N fusion, yeast selection) (log enrichment); library NNK2; higher = more nucleation; inactive = no reads after selection
Outline: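 In psi-negative yeast, Sup35N fusions carrying peptides of 20 random codons were induced with 100 μM copper sulfate for 24 hours. The cells then grew 7 days at 30°C on medium lacking adenine and uracil, and plasmid inserts from input and output were Illumina-sequenced, excluding sequences with under 100 input reads. Nucleation score is the DiMSum log enrichment of output over input reads, centred on the mode score of non-aggregating sequences.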

| Substance | amyloid nucleation score |
| --- | --- |
| RFGGSVYARGERL | -0.159 ± 0.46 |
| RFGIGSLRSTSHVAGLMVMS | 0.733 ± 0.44 |
| RFILLFTCGKGFFMHTCSRG | 3.86 ± 0.11 |
| RFIMSRYALEGAESTLMKHN | 3.53 ± 0.1 |
| RFKWK | 3.67 ± 0.11 |
| RFQLVSAMAFTYMVAR | -0.211 ± 0.56 |
| RFRRSVFMLMHGWRSTVFIV | 1.07 ± 0.34 |
| RFSCLSELSFLYFGSH | 5.059 ± 0.034 |
| RFSELSHK | -0.144 ± 0.26 |
| RFVKTGYTYDLVGTVLHCLS | 5.97 ± 0.054 |
| RFYGVY | inactive |
| RFYIPLSYFMSEGDRSCKFI | -0.642 ± 0.61 |
| RGALALLVRDAMFFCSLSGF | 4.41 ± 0.1 |
| RGANNGMCYFMTRRKWLLMV | 0.813 ± 0.56 |
| RGFCYNIT | 0.305 ± 0.37 |
| RGGSIIYHALVRVVFFLSVY | -1.01 ± 0.64 |
| RGIKNVWNL | 0.461 ± 0.54 |
| RGLTKLSVLFRQNKESYNIV | -0.521 ± 0.76 |
| RGMTRVVFTVMLLRLWYSQS | 0.659 ± 0.21 |
| RGMWRCHNG | 1.49 ± 0.37 |
| RGNHNHGLWNPKNSMVMWEG | 0.062 ± 0.48 |
| RGQTMNHALRAHW | 0.639 ± 0.42 |
| RGSVVLNSVWVMLDMYCLLP | 1.82 ± 0.28 |
| RGVCLNNLMWGTLGTRKALL | -0.797 ± 1 |
| RGVDYVLSCL | -1.21 ± 0.61 |

| Substance | amyloid nucleation score |
| --- | --- |
| RGVLYAKVL | 0.808 ± 0.33 |
| RGVVGLDSIRWPSFGAVMKF | -0.757 ± 0.48 |
| RHDSCMCFMTDQL | -0.864 ± 0.44 |
| RHKFAMMACVTYNGDVGVMT | 1.14 ± 0.21 |
| RHNKNRSVCSYRSKYAKKYV | -0.208 ± 0.74 |
| RHRCSI | -0.059 ± 0.39 |
| RIEDFF | 1.19 ± 0.68 |
| RIGDRSCSVRKEHKDAQWSI | 0.196 ± 0.77 |
| RIGLMNL | 3.38 ± 0.11 |
| RIHFGFRMMMCRDIRIFTSQ | 6.06 ± 0.064 |
| RIIKYIMNGRRFVVLWRVFS | 5.342 ± 0.052 |
| RIMPTLLKIPYLWYQSLSCD | -0.081 ± 0.22 |
| RINVPDVRMDPNYQIHF | -1.02 ± 0.36 |
| RIQWKDGYHVARRVFIGNTG | -0.449 ± 0.63 |
| RIRCIVGSVPCMAASKHDGR | 0.783 ± 0.22 |
| RIRYGLKVCSMVDGMLGRDW | 0.807 ± 0.29 |
| RKIYV | -0.139 ± 0.55 |
| RKQCNKFGVWDQI | 0.214 ± 0.5 |
| RLCLRDQYSFGQIVDYKCFD | inactive |
| RLDNIIVAERCTSLRESRFG | -0.047 ± 1.1 |
| RLDRVIFY | 1.85 ± 0.099 |
| RLFCSAVAH | 0.308 ± 0.44 |
| RLFDRSVLPLGLWVRCKIHW | 0.28 ± 0.61 |
| RLIGLVSRVEHVYIAVKRWE | 0.543 ± 0.34 |
| RLLMGPVNSFGR | 3.57 ± 0.07 |

| Substance | amyloid nucleation score |
| --- | --- |
| RLLRQGDFGVTENRFLFRDI | -0.502 ± 0.79 |
| RLNAMEESIKSNIYSFWSFY | inactive |
| RLNRSMSSHHDRRHLEWSLS | 0.235 ± 0.19 |
| RLNVISIQNAIMRVVRTKRF | 3.61 ± 0.12 |
| RLNVKDYFCYIAQESKTTDR | 4.76 ± 0.083 |
| RLRIMYSTLLATGMV | 0.178 ± 0.5 |
| RLRMSMIISLINLRLCGLML | 1.03 ± 0.53 |
| RLRTKCYFNCCNGHYLEFGG | 9.489 ± 0.067 |
| RLSLGLYINALRC | 1.01 ± 0.51 |
| RLSVLD | 1.34 ± 0.21 |
| RLTDLVSMVSLNPLYFMWSS | -0.08 ± 0.3 |
| RLVPISKNRVGMNWSASLSL | 0.012 ± 0.15 |
| RLVSKEATCPR | -0.058 ± 0.54 |
| RLYVKWSNSISDSRSLCVP | 0.208 ± 0.16 |
| RMDVSYLAFVWSHN | 3.5 ± 0.056 |
| RMLCSHINYLIVGMG | -0.061 ± 0.28 |
| RMRCLDSVQGLNLIHTDVSV | inactive |
| RMVMSE | 0.16 ± 0.31 |
| RMVRGLAFGDFWASSMRKYP | 0.241 ± 0.33 |
| RMVVVVSKRY | 1.73 ± 0.17 |
| RMYLVGMLMHSLLEEMSKTA | 4.76 ± 0.083 |
| RNALDTDAAE | 0.323 ± 0.55 |
| RNFDRGWSHR | 0.319 ± 0.4 |
| RNGVLTEARHLSVSGEERRV | -0.316 ± 0.8 |
| RNHVAHH | 2.17 ± 0.21 |

| Substance | amyloid nucleation score |
| --- | --- |
| RNSCFVLSFMGWFVHYHFRF | -0.317 ± 0.79 |
| RNSLEFTDTRCNQPGQCESG | 0.641 ± 0.4 |
| RNVACFSAVT | -0.283 ± 0.63 |
| RPAFTNLRQCQRAYPVGGRC | 0.195 ± 0.53 |
| RPIKRV | 0.173 ± 0.2 |
| RPISLCALYWLNLRANIHCR | 0.144 ± 0.56 |
| RPKTEDCGLNLSTVLNQVGH | 0.111 ± 0.19 |
| RPNLLSDILPRGLMAKSMHF | 0.107 ± 0.79 |
| RPYNPFPLCILRWRPELL | inactive |
| RRALIWIAIHECIRTTPHLL | -0.434 ± 0.76 |
| RRFVCRCFRYTHECVLGCFG | 1.52 ± 0.33 |
| RRGENIDESVRVVEWGVDVM | 0.64 ± 0.47 |
| RRGTQVFCCDYWSARGSWT | 8.749 ± 0.062 |
| RRKHLWRQRLWTR | -0.425 ± 0.63 |
| RRPCLS | -1.09 ± 0.63 |
| RRPIGDW | 0.169 ± 0.36 |
| RRRRSGLCRAYVNVLNARTR | 0.79 ± 0.41 |
| RSAILEEDFDCHMYWGL | 0.916 ± 0.31 |
| RSCFPCSCK | 0.472 ± 0.31 |
| RSCFPMIIALVRFDVFGDCY | -0.339 ± 0.31 |
| RSDSVYSIGCSNENRQSGRA | 1.21 ± 0.2 |
| RSFEVKLFARSLKHIPDLTP | 1.02 ± 0.35 |
| RSGCQMKCITYRGRAGGHLV | 0.882 ± 0.31 |
| RSICVYTIRYLFSH | -0.513 ± 0.3 |
| RSIRCVYKF | -0.465 ± 0.29 |

| Substance | amyloid nucleation score |
| --- | --- |
| RSKDYVFFCFSCTNWLC | 8 ± 0.082 |
| RSLDQSIVNRVVVYFSGWCV | 3.62 ± 0.073 |
| RSLGVSAL | inactive |
| RSPCIWLWFLNAACHKCVLM | 0.752 ± 0.43 |
| RSPMWLAGLMNIYSP | 2.87 ± 0.084 |
| RSPRHQNQDPRLKGRNARSP | 2.49 ± 0.086 |
| RSRVLILCDEGRNCVL | -0.533 ± 0.42 |
| RSSADAPVY | -0.864 ± 1.1 |
| RSTLPGRRFFIGNILYN | -0.578 ± 0.78 |
| RSWIGERIIYSSMRYQCAYL | -1.42 ± 0.54 |
| RTCTFVCRGM | 2.86 ± 0.1 |
| RTGLTRYLLYFPV | 0.326 ± 0.22 |
| RTGRPSHDFRYGKQRFMVRP | 0.736 ± 0.74 |
| RTIVCF | -0.699 ± 1 |
| RTLFSRFYRRSMFNLSVKKK | inactive |
| RTLLSSCKIATSLWHMCYPQ | -0.381 ± 1.1 |
| RTLYSGWVGHVSKEARNLFK | 6.12 ± 0.054 |
| RTVIQQVPAPLARAGVRWGW | 3.17 ± 0.097 |
| RTVLATYMTPRSTPKSDYPR | -0.734 ± 0.48 |
| RTVLFAGCAVSNEMFCEKLV | 3.68 ± 0.077 |
| RTVLGGWMANWASHNILVQC | 0.316 ± 0.39 |
| RTYSMGGIR | -0.849 ± 1.1 |
| RVDGDYSSARRGGLISKWAF | 0.804 ± 0.5 |
| RVEEWASFTTVIIMRMLNPG | 0.94 ± 0.6 |
| RVFFTVCGMHTGSSKKLAGL | 1.23 ± 0.21 |

| Substance | amyloid nucleation score |
| --- | --- |
| RVFMEH | -0.047 ± 1.1 |
| RVFRCYRIIYMVMI | 0.204 ± 0.19 |
| RVGDEFVGCRWVSRIANSHS | 2.23 ± 0.14 |
| RVGFNNRNVVD | 0.266 ± 0.56 |
| RVGQSIYMPPLRNGRAGVKW | 1.21 ± 0.27 |
| RVGRSSKLWGFREYTSRKFG | 0.28 ± 0.77 |
| RVKEMWGVYVGQHGYTANAL | 0.842 ± 0.47 |
| RVQDRYILNSVRQHHGAGQR | -0.14 ± 1.1 |
| RVQVQLLISVYFFLYLPHSI | -1.58 ± 0.41 |
| RVSESLPSTD | -0.219 ± 0.47 |
| RVSQHGEVPSTCFSK | 1.39 ± 0.38 |
| RVSYDF | 0.43 ± 0.65 |
| RVTSEIWGCGGGFREECIKE | 0.143 ± 0.5 |
| RVVGPFFMVFVLTDMGFWVT | inactive |
| RVWDNSVLGWQQGFSTVERV | 0.766 ± 0.3 |
| RVYMRISFSLSLLIAMSNLI | -0.315 ± 0.64 |
| RWRIARMITPNLPELLSLYR | 2.93 ± 0.059 |
| RWTKGCDSNCIWF | -0.502 ± 0.25 |
| RWVSGQTYVVLSIVR | 0.242 ± 0.28 |
| RYALNYTIPEPYWT | -0.576 ± 0.55 |
| RYDSMIHRSVGWPGSYNKGH | -0.287 ± 0.31 |
| RYGFSVSITMIFYRGGFCRW | inactive |
| RYGVRSQCYGVTKRLFAITA | 0.951 ± 0.33 |
| RYHWEVLK | 0.082 ± 1 |
| RYRELVGVKCMV | 0.978 ± 0.74 |

| Substance | amyloid nucleation score |
| --- | --- |
| RYRLISTTFGVAHSFEPPRL | 4.26 ± 0.059 |
| RYRVRKCSLANWDEWTTIGC | 1.67 ± 0.19 |
| RYVNVCYNSSAWGLFGTTHI | inactive |
| RYVQLIDHWSNGIVKVVGVL | 0.783 ± 0.56 |
| RYVVCNGRNLELLDFMNSRS | -0.74 ± 1.1 |
| RYWTSIGCGR | 0.589 ± 0.32 |
| SACIILI | 1.65 ± 0.15 |
| SADRECCQHEFGASPRLRVG | 4.907 ± 0.041 |
| SAFIVNCNLINAQERDFKSD | 6.682 ± 0.034 |
| SAGHSKGLQDVAPPRIFMVS | inactive |
| SAGVEAREMRTSYLGSSEVG | 1.28 ± 0.32 |
| SAHLYALGNSRHFIYVPVEL | inactive |
| SALCNDVVRPMMVFSENCAK | 0.225 ± 0.31 |
| SALNYSFFLL | -0.27 ± 1.1 |
| SAMSCPTKSAELRKCSYHPS | 0.246 ± 0.27 |
| SASWGLQSYNSRCGRLTNRF | 0.524 ± 0.81 |
| SAWVTNIFDNKLCVAVTEFR | 4.04 ± 0.06 |
| SCCCYMIGKGIPQM | 0.394 ± 0.3 |
| SCCEGISSVNNLFMRRRGIE | 0.201 ± 0.53 |
| SCDVTHGGLRQSKHGSGESG | 7.7 ± 0.083 |
| SCFLNMTLILDLVITGMMPR | -0.251 ± 0.32 |
| SCFSIFMLIPSSATAIFSQI | -1.27 ± 1 |
| SCGVDCSVSGC | 0.903 ± 0.57 |
